Experimental data from patent publication US11180770B2, “HPPD variants and methods of use” (BASF Agricultural Solutions Seed US LLC, priority 2017, dated 2021).

Test system: HPPD polypeptides
Assay: coupled HPPD activity assay: turnover and residual turnover in crude extracts
Assay type: biochemical, Pseudomonas fluorescens
Conditions: for Residual turnover [%]: 100 μM Cmpd. 1, signal change with inhibitor divided by signal change without inhibitor; for Turnover: absence of Cmpd. 1, kinetic changes in absorbance (OD) at 320 nm, 30 min; for Turnover / Residual turnover: high substrate concentration; for Residual turnover: presence of 100 μM Cmpd. 1, changes in absorbance (OD) at 320 nm
Method: The activity of HPPD polypeptides was determined in absence or presence of HPPD inhibitors using the coupled HPPD activity assay (FIG. 1).
For the determination of the residual activity, the apparent kinetic constant (kapp) of the determined substrate conversion was measured as kinetic changes in absorbance (OD) at 320 nm in a coupled assay, in that homogentisate (HGA) formed by HPPD from HPP is directly converted into the well absorbing molecule maleylacetoacetate (MAA) by a second enzyme homogentisate dioxygenase (HGD), applied in excess uniformly in all assays (see FIG. 1). The measurements were performed in 384 micro titer plates (Greiner Bio-One GmbH, Frickenhausen, Germany) by plate readers (Tecan infinite M1000 or M1000PRO, Tecan, Männedorf, Switzerland). The kcat/kM ratio of an enzymatic activity is proportional to the apparent kinetic constant kapp and is proportional to kcat/kM*[E] ([E]=enzyme concentration). […] As both kapp measurements in the presence and absence of inhibitor were performed by use of the identical enzyme sample, crude or purified, and thereby at the same enzyme concentration, the enzyme concentration eliminates from the calculation of residual activity and the ratio of both kapp directly indicates the change of kM due to the inhibition.
The assay solution used for determination of residual activities in raw HPPD polypeptide samples was composed by 200 mM sodium phosphate (Merck, Darmstadt, Germany, pH 7.0), 5 mM MgCl2 (Merck, Darmstadt, Germany), 20 mM ascorbate (Sigma-Aldrich, St. Louis, USA), 1 mM DTT (Sigma-Aldrich, St. Louis, USA), 0.1% Pluronic F-68 (Sigma-Aldrich, St. Louis, USA), 40 μM FeSO4 (Sigma-Aldrich, St. Louis, USA), about 8 mg/ml purified HGD and 500 μM HPP from a 1 M stock solution in DMSO (Sigma-Aldrich, St. Louis, USA) and equilibrated for 20 min on ice. For every HPPD polypeptide sample two assays were performed in quadruplets, whereby 5 μl of HPPD polypeptide sample were mixed firstly with 5 μl buffer (1×BugBuster®; (Merck, Darmstadt, Germany); in 140 mM Tris, pH 7.8, with 1:25000 diluted BNase®; Qiagen, Hilden, Germany)) or 5 μl inhibitor diluted in the same buffer from a 0.1 M stock solution in DMSO (200 μM resulting in 100 μM in the HPPD polypeptide/inhibitor sample) in the reference and inhibition assay, respectively, and subsequently with 10 μl assay solution. The change in absorbance at 320 nm was followed in 1 min intervals for 30 min. The kapp values were calculated as signal slope over time in the early phase of the kinetic reaction, usually for the first 5-10 minutes of the measurements. Additionally and according to the calculated residual activity, the total conversion, i.e. the absolute change in signal, in the 30 min timeframe was monitored as measure of turnover, and a residual turnover was calculated by dividing the change in signal in the presence of inhibitor by the change in signal in the reference sample without inhibitor.
Residual turnover were determined according to Example 3 by measuring total change in signal in the presence and absence of Cmpd. 1 (2-chloro-3-(methylsulfanyl)-N-(1-methyl-1H-tetrazol-5-yl)-4-(trifluoromethyl)benzamide). For each mutant HPPD polypeptide, the total change in signal without HPPD inhibitor herbicides served for normalization of the total change in signal in the presence of the herbicide.

Molecule | Residual turnover [%] | Turnover | Residual turnover
6 (protein, mutant HPPD polypeptide) MADLYENPMGLMGFEFIEFASPTPGTLEPIFEIMGFTKVATHRSKNVHLYRQGEINLILNNEPNSIASYFAAEHGPSVCGMAFRVKDSQKAYNRALELGAQPIHIDTGPMELNLPAIKGIGGAPLYLIDRFGEGSSIYDIDFVYLEGVERNPVGAGLKVIDHLTHNVYRGRMVYWANFYEKLFNFREARYFDIKGEYTGLTSKAMSAPDGMIRIPLNEESSKGAGQIEEFLMQFNGEGIQHVAFLTDDLVKTWDALKKIGMRFMTAPADNYYEMLEGRLPDHGEPVDQLQARGILLDGSSVEGDKRLLLQIFSETLMGPVFFEFIQRKGDDGFGPDSFKVLFESIERDQVRRGVLTAD | 50 | 0.165 | 0.082
9 (protein, mutant HPPD polypeptide) MADLYENPMGLMGFEFIEFASPTPGTLEPIFEIMGFTKVATHRSKNVHLYRQGEINLILNNEPNSIASYFAAEHGPSVCGMAFRVKDSQKAYNRALELGAQPIHIDTGPMELNLPAIKGIGGAPLYLIDRFGEGSSIYDIDFVYLEGVERNPVGAGLKVIDHLTHNVYRGRMVYWANFYEKLFNFREARYFDIKGEYTGLTSKAMSAPDGMIRIPLNEESSKGAGQIEEFLMQFNGEGIQHVAFLTDDLVKTWDALKKIGMRFMTAPADTYYEMLEGRLPDHGEPVDQLQARGILLDGSSVEGDKRLLLQIFSETLMGPVFFEFIQRKGDDGFGPDSFKVLFESVERDQVRRGVLTAD | 52 | 0.102 | 0.053
8 (protein, mutant HPPD polypeptide) MADLYENPMGLMGFEFIEFASPTPGTLEPIFEIMGFTKVATHRSKNVHLYRQGEINLILNNEPNSIASYFAAEHGPSVCGMAFRVKDSQKAYNRALELGAQPIHIDTGPMELNLPAIKGIGGAPLYLIDRFGEGSSIYDIDFVYLEGVERNPVGAGLKVIDHLTHNVYRGRMVYWANFYEKLFNFREARYFDIKGEYTGLTSKAMSAPDGMIRIPLNEESSKGAGQIEEFLMQFNGEGIQHVAFLTDDLVKTWDALKKIGMRFMTAPPDNYYEMLEGRLPDHGEPVDQLQARGILLDGSSVEGDKRLLLQIFSETLMGPVFFEFIQRKGDDGFGPDSFKVLFESIERDQVRRGVLTAD | 50 | 0.107 | 0.054
7 (protein, mutant HPPD polypeptide) MADLYENPMGLMGFEFIEFASPTPGTLEPIFEIMGFTKVATHRSKNVHLYRQGEINLILNNEPNSIASYFAAEHGPSVCGMAFRVKDSQKAYNRALELGAQPIHIDTGPMELNLPAIKGIGGAPLYLIDRFGEGSSIYDIDFVYLEGVERNPVGAGLKVIDHLTHNVYRGRMVYWANFYEKLFNFREARYFDIKGEYTGLTSKAMSAPDGMIRIPLNEESSKGAGQIEEFLMQFNGEGIQHVAFLTDDLVKTWDALKKIGMRFMTAPGDNYYEMLEGRLPDHGEPVDQLQARGILLDGSSVEGDKRLLLQIFSETLMGPVFFEFIQRKGDDGFGPDSFKVLFESIERDQVRRGVLTAD | 42 | 0.149 | 0.063
11 (protein, mutant HPPD polypeptide) MADLYENPMGLMGFEFIEFASPTPGTLEPIFEIMGFTKVATHRSKNVHLYRQGEINLILNNEPNSIASYFAAEHGPSVCGMAFRVKDSQKAYNRALELGAQPIHIDTGPMELNLPAIKGIGGAPLYLIDRFGEGSSIYDIDFVYLEGVERNPVGAGLKVIDHLTHNVYRGRMVYWANFYEKLFNFREARYFDIKGEYTGLTSKAMSAPDGMIRIPLNEESSKGAGQIEEFLMQFNGEGIQHVAFLTDDLVKTWDALKKIGMRFMTAPPDTYYEMLEGRLPDHGEPVDQLQARGILLDGSSVEGDKRLLLQIFSETLMGPVFFEFIQRKGDDGFGPDSFKVLFESVERDQVRRGVLTAD | 44 | 0.160 | 0.071
10 (protein, mutant HPPD polypeptide) MADLYENPMGLMGFEFIEFASPTPGTLEPIFEIMGFTKVATHRSKNVHLYRQGEINLILNNEPNSIASYFAAEHGPSVCGMAFRVKDSQKAYNRALELGAQPIHIDTGPMELNLPAIKGIGGAPLYLIDRFGEGSSIYDIDFVYLEGVERNPVGAGLKVIDHLTHNVYRGRMVYWANFYEKLFNFREARYFDIKGEYTGLTSKAMSAPDGMIRIPLNEESSKGAGQIEEFLMQFNGEGIQHVAFLTDDLVKTWDALKKIGMRFMTAPGDTYYEMLEGRLPDHGEPVDQLQARGILLDGSSVEGDKRLLLQIFSETLMGPVFFEFIQRKGDDGFGPDSFKVLFESVERDQVRRGVLTAD | 56 | 0.125 | 0.070
15 (protein, mutant HPPD polypeptide) MADLYENPMGLMGFEFIEFASPTPGTLEPIFEIMGFTKVATHRSKNVHLYRQGEINLILNNEPNSIASYFAAEHGPSVCGMAFRVKDSQKAYNRALELGAQPIHIDTGPMELNLPAIKGIGGAPLYLIDRFGEGSSIYDIDFVYLEGVERNPVGAGLKVIDHLTHNVYRGRMVYWANFYEKLFNFREARYFDIKGEYTGLTSKAMSAPDGMIRIPLNEESSKGAGQIEEFLMQFNGEGIQHVAFLTDDLVKTWDALKKIGMRFMTAPRDNYYEMLEGRLPDHGEPVDQLQARGILLDGSSVEGDKRLLLQIFSETLMGPVFFEFIQRKGDDGFGPDSFKVLFESVERDQVRRGVLTAD |  | 0.040 | 0.030
13 (protein, mutant HPPD polypeptide) MADLYENPMGLMGFEFIEFASPTPGTLEPIFEIMGFTKVATHRSKNVHLYRQGEINLILNNEPNSIASYFAAEHGPSVCGMAFRVKDSQKAYNRALELGAQPIHIDTGPMELNLPAIKGIGGAPLYLIDRFGEGSSIYDIDFVYLEGVERNPVGAGLKVIDHLTHNVYRGRMVYWANFYEKLFNFREARYFDIKGEYTGLTSKAMSAPDGMIRIPLNEESSKGAGQIEEFLMQFNGEGIQHVAFLTDDLVKTWDALKKIGMRFMTAPGDNYYEMLEGRLPDHGEPVDQLQARGILLDGSSVEGDKRLLLQIFSETLMGPVFFEFIQRKGDDGFGPDSFKVLFESVERDQVRRGVLTAD |  | 0.024 | 
14 (protein, mutant HPPD polypeptide) MADLYENPMGLMGFEFIEFASPTPGTLEPIFEIMGFTKVATHRSKNVHLYRQGEINLILNNEPNSIASYFAAEHGPSVCGMAFRVKDSQKAYNRALELGAQPIHIDTGPMELNLPAIKGIGGAPLYLIDRFGEGSSIYDIDFVYLEGVERNPVGAGLKVIDHLTHNVYRGRMVYWANFYEKLFNFREARYFDIKGEYTGLTSKAMSAPDGMIRIPLNEESSKGAGQIEEFLMQFNGEGIQHVAFLTDDLVKTWDALKKIGMRFMTAPPDNYYEMLEGRLPDHGEPVDQLQARGILLDGSSVEGDKRLLLQIFSETLMGPVFFEFIQRKGDDGFGPDSFKVLFESVERDQVRRGVLTAD | 33 | 0.188 | 0.062
12 (protein, mutant HPPD polypeptide) MADLYENPMGLMGFEFIEFASPTPGTLEPIFEIMGFTKVATHRSKNVHLYRQGEINLILNNEPNSIASYFAAEHGPSVCGMAFRVKDSQKAYNRALELGAQPIHIDTGPMELNLPAIKGIGGAPLYLIDRFGEGSSIYDIDFVYLEGVERNPVGAGLKVIDHLTHNVYRGRMVYWANFYEKLFNFREARYFDIKGEYTGLTSKAMSAPDGMIRIPLNEESSKGAGQIEEFLMQFNGEGIQHVAFLTDDLVKTWDALKKIGMRFMTAPADNYYEMLEGRLPDHGEPVDQLQARGILLDGSSVEGDKRLLLQIFSETLMGPVFFEFIQRKGDDGFGPDSFKVLFESVERDQVRRGVLTAD | 50 | 0.115 | 0.058
